# Entries after “also recorded” stand apart in the source; their conditions may differ.
# T1: CpIAP (Cydia pomonella granulosis virus, UniProt P41436)
# T1 construct: The complete ORF of CpIAP was subcloned into the EcoRI-EcoRV sites of pcDNA3-myc or the EcoRI-SalI sites in pGEX4T-1; GST (N); made in house; host or cells: E. coli BL21 (DE3) containing pT-Trx
# T1 sequence (P41436 1-275): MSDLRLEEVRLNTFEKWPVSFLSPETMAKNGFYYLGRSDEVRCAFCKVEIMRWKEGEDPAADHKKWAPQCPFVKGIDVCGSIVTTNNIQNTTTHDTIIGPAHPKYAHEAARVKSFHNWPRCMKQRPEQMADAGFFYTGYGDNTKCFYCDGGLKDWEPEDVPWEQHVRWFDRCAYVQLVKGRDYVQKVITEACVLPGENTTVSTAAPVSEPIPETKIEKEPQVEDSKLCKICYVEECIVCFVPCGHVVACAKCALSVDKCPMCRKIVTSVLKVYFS
# T2: recombinant purified caspase-7 (mammalian, UniProt P55210 24-303)
# T2 construct: also called caspases-7
# T2 sequence: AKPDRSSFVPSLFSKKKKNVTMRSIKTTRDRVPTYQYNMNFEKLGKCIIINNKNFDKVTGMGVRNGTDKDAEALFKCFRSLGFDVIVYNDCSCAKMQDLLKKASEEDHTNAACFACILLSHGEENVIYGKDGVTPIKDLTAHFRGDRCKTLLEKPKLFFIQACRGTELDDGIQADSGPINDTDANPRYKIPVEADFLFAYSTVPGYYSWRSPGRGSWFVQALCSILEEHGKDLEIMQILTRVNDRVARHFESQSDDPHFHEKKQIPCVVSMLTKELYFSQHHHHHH
# T3: [35S]pro-caspase-9 (mammalian, UniProt P55211 1-416, limits assumed)
# T3 construct: also called in vitro-translated pro-caspase-9
# T3 sequence (looked up): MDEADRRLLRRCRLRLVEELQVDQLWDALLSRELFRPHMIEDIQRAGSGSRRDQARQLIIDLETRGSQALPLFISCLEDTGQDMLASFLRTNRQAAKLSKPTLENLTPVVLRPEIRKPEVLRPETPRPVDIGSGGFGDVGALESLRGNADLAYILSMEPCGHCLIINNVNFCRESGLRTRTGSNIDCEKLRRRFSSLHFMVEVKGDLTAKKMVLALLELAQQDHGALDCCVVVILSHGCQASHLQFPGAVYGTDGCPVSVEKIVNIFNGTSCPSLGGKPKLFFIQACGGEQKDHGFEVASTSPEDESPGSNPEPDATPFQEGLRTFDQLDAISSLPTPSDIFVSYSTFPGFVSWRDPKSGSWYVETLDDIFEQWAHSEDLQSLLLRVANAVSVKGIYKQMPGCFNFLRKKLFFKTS
# T4: pro-caspase-9 (Homo sapiens, UniProt P55211)
# T4 construct: host or cells: cell-free in vitro transcription/translation
# T4 sequence (P55211 1-416): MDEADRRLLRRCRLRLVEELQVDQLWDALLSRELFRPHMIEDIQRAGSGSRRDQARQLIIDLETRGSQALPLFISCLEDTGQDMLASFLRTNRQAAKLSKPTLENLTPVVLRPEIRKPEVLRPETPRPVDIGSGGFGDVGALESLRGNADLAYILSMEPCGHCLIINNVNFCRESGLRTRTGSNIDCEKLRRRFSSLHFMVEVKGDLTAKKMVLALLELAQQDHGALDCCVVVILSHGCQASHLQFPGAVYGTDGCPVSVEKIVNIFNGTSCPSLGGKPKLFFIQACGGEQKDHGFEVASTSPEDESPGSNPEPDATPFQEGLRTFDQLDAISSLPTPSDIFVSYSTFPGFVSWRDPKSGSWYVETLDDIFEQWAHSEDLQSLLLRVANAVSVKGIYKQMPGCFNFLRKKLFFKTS
# B1: recombinant purified caspase-3 (enzyme, mammalian)
# chain: SGISLDNSYKMDYPEMGLCIIINNKNFHKSTGMTSRSGTDVDAANLRETFRNLKYEVRNKNDLTREEIVELMRDVSKEDHSKRSSFVCVLLSHGEEGIIFGTNGPVDLKKITNFFRGDRCRSLTGKPKLFIIQACRGTELDCGIETDSGVDDDMACHKIPVEADFLYAYSTAPGYYSWRNSKDGSWFIQSLCAMLKQYADKLEFMHILTRVNRKVATEFESFSFDATFHAKKQIPCIVSMLTKELYFYHHHHHHH
# notes: also called caspases-3
# B2: GST-CpIAP (other)
# chain: MSDLRLEEVRLNTFEKWPVSFLSPETMAKNGFYYLGRSDEVRCAFCKVEIMRWKEGEDPAADHKKWAPQCPFVKGIDVCGSIVTTNNIQNTTTHDTIIGPAHPKYAHEAARVKSFHNWPRCMKQRPEQMADAGFFYTGYGDNTKCFYCDGGLKDWEPEDVPWEQHVRWFDRCAYVQLVKGRDYVQKVITEACVLPGENTTVSTAAPVSEPIPETKIEKEPQVEDSKLCKICYVEECIVCFVPCGHVVACAKCALSVDKCPMCRKIVTSVLKVYFS
# notes: range 1-275
# Tests used:
# CpIAP = target: T1, CpIAP; assay: Grim peptide effect on CpIAP inhibition of mammalian caspases in vitro; type: biochemical, baculovirus
# SfIAP = assay: Grim peptide effect on SfIAP-mediated suppression of caspases in cyto c-stimulated cell extracts; type: biochemical, Spodoptera frugiperda; details: cyto c-stimulated cytosol extracts
# Procedure: (§1) Caspase activity was assayed by release of 7-amino-4-trifluoromethyl-coumarin (AFC) from Ac-DEVD or Ac-LEHD-containing synthetic peptides (Calbiochem) using continuous-reading instuments as described (Quan, L. T. et al., (1995) J. Biol. Chem. 270:10377-10379).
# (§2) Cytosolic extracts were prepared as described (Deveraux, Q., Takahashi, R., Salvesen, G. S. & Reed, J. C. (1997) Nature 388, 300-303) using human embryonic kidney (HEK) 293 cells. Cells were washed with ice-cold buffer A (20 mM HEPES pH 7.5, 10 mM KCl, 1.5 mM MgCl2, 1 mM EDTA and 1 mM DTT), suspended in 1 volume of buffer A, incubated on ice for 20 mins, and then disrupted by 15 passages through a 26-gauge needle. Cell extracts were purified by centrifugation at 15000 g for 12 mins and supernatants were stored at −80 ° C. For initiating caspase activation, either 100 nM of purified recombinant caspase-8 or 1 μM horse heart cytochrome c (Sigma) together with 1 mM dATP was added to extracts (Deveraux, Q. L., et al., (1998) EMBO J. 17, 2215-2223).
# It has been proposed that Drosophila apoptosis-inducers such as Grim function as negative regulators of IAPs (Deveraux, Q. & Reed, J. C. (1998) Genes Dev. 13, 239-252; Wang, S. et al. (1999) Cell 98, 453-463). […]
# [1] = target: GST-SfIAP (Spodoptera frugiperda); assay: cell-based or functional assay
# [2] = target: B1; assay: in vitro binding with recombinant purified caspase; method not described
# [3] = target: T2, recombinant purified caspase-7; assay: as above
# [4] = target: recombinant active caspase-9 (caspase-9 lacking the CARD domain) (mammalian), P55211; assay: cell-based or functional assay
# GST-CpIAP = target: B2; assay: in vitro binding with recombinant purified caspase; method not described
# [35S]pro-caspase-9 = target: T3, [35S]pro-caspase-9; assay: GST pull-down of in vitro-translated [35S]pro-caspase-9 on glutathione-Sepharose, SDS-PAGE and autoradiography
# [5] = test system: caspase-3 and similar DEVD-cleaving proteases in cell extracts treated with cyto c; assay: Cell-free caspase activation induced by cyto c in HEK 293 cytosolic extracts; type: biochemical, human; details: recombinant protein, cell extracts treated with cyto c
# Procedure: as §1, §2
# To further explore the mechanisms by which SfIAP and CpIAP inhibit mammalian apoptosis, a cell-free system in which exogenously added active caspase-8 or cyto c induces activation of caspase-3 and similar proteases, as measured by hydrolysis of Ac-DEVD-AFC (Quan, L. T. et al., (1995) J. Biol. Chem. 270, 10377-10379) was used. Caspase-8 and cyto c trigger the same apoptosis pathways in extracts which are activated by Fas and Bax in intact cells.
# pro-caspase-9 = target: T4, pro-caspase-9; assay: GST pull-down binding of [35S]-pro-caspase-9; parameters: species or system mammalian; details: GST fusion protein on glutathione-Sepharose
# Procedure: [^35S]Pro-caspase-9 was in vitro transcribed and translated in the presence of [^35S]L-methionine using TNT kit from Promega. Protein were desalted and exchanged into buffer (20 mM HEPES pH 7.5, 10 mM KCl, 1.5 mM MgCl2, 1 mM EDTA and 1 mM DTT) with Bio-spin P-6 columns (Bio-Rad). […] After incubation at 4 ° C. for 1 hour, beads were removed by centrifugation and washed twice with 0.5 ml of 50 mM Tris (pH 7.5), 150 mM NaCl, 2 mm DTT before analysis by SDS-PAGE and autoradiography.
molecule,measurement,setting,value
"Grim peptide: peptide corresponding to the IAP-binding domain of Grim (first 18 amino acid of Grim) (MAIAYFIPDQAQLLARSY; UniProt Q24570 1-18, looked up, fragment)",effect on ability of CpIAP to inhibit mammalian caspases,CpIAP,negate the ability of SfIAP and CpIAP to inhibit mammalian caspases
same,effect on SfIAP inhibition of cyto c-induced activation of DEVD-cleaving caspases,SfIAP,abrogated this inhibitory effect of SfIAP in a concentration-dependent manner; also recorded: negate the ability of SfIAP and CpIAP to inhibit mammalian caspases
same,excess of peptide relative to SfIAP resulting in complete restoration of caspase activity,SfIAP,5 fold
"Grim peptide (IAP-binding domain of Grim, first 18 amino acids) (from UniProt Q24570 1-18)",restoration of DEVD-cleaving caspase activity in cyto c-stimulated cell extracts suppressed by SfIAP,[1],5 fold excess
"GST-SfIAP (other, not shown: a dimerising Fc or GST, also called recombinant SfIAP; recombinant-purified SfIAP) MWSCSLPCWNTKKSGLQMDITKVASNGSSSTLTLFKSGSLEAKIRPLAPLMLPTPSYDSNAGSPSLSPSTPCSSSSFSIDKTDNHDTFGFSADTVDMRKEDERMKTFEKWPVSFLSGEQLARNGFYYLGRRDEARCAFCKVEIMRWVEGDDPAKDHQRWAPQCPFVRKLNGTAAADTGSSGQDECGARAAPSGTSPPRMAGPVHPRYASEAARLRSFKDWPRCMRQKPEELAEAGFFYTGQGDKTKCFYCDGGLKDWENHDVPWEQHARWFDRCAYVQLVKGREYVQKVISEACEVSASEAERDVAPARTAEPSPPAEAPENSVDDSKLCKICYAEERNVCFVPCGHVVACAKCALAADKCPMCRRTFQNAVRLYFS",binding result,[2],no binding
same,binding result,[3],no binding
same,molar-excess relative to caspase-9 which produced ~50% inhibition of protease activity (Ac-LEHD-AFC substrate) (fold molar excess),[4],8
B1,binding result,GST-CpIAP,no binding
B2,binding result,[3],no binding
"GST-XIAP-BIR1 (other, human, UniProt P98170 1-123, looked up, not shown: a dimerising Fc or GST, domain: BIR1; also called BIR1 domain of XIAP) MTFNSFEGSKTCVPADINKEEEFVEEFNRLKTFANFPSGSPVSASTLARAGFLYTGEGDTVRCFSCHAAVDRWQYGDSAVGRHRKVSPNCRFINGFYLENSATQSTNSGIQNGQYKVENYLGS",binding result,[35S]pro-caspase-9,no binding
"XIAP-BIR1: control protein consisting of the BIR1 domain of XIAP (protein, left off: a dimerising Fc or GST) MTFNSFEGSKTCVPADINKEEEFVEEFNRLKTFANFPSGSPVSASTLARAGFLYTGEGDTVRCFSCHAAVDRWQYGDSAVGRHRKVSPNCRFINGFYLENSATQSTNSGIQNGQYKVENYLGS",effect on hydrolysis of Ac-DEVD-AFC (caspase activity),[5],did not interfere with caspase activity
same,binding to pro-caspase-9 (autoradiography),pro-caspase-9,failed to bind caspase-9
